Test results from paper PMC2194227.

Experiments:
[1] = target: WT mCD1d cytoplasmic tail peptide (…) (mouse); assay: SPR
[2] = target: mutant mCD1d cytoplasmic tail peptide (…), tyrosine substituted for alanine (mouse); assay: SPR

**Q.** Which Kd [1] does the source give for “adaptor protein complex 3 (AP-3) purified from pig brain cytosol” here?
**A.** 540 nM

**Q.** What about the Kd [2] of the same substance?
**A.** 2630 nM
